US20240034786A1 (WUXI BIOLOGICS IRELAND, published 2024)

Experiments:
[1] = biological target: T1, Human P-cadherin on cells (human, UniProt P22223 108-829); test: FACS affinity test on DU-145 cells
T1 construct: whole, on cells; Endogenous P-cadherin on tumour cell lines; also called hPro1
Procedure: Antibodies to be tested were serially diluted in 1×PBS/1% BSA and incubated with cells at 4° C. for 1 h. The plates were centrifuged and the supernatant was discarded. The cells were then incubated with Alexa647 conjugated goat anti-human IgG Fc (Jackson) at 4° C. in the dark for 30 min. After washing the cells were re-suspended in 100 μL 1×PBS/1% BSA, and fluorescence intensity was measured by flow cytometry (BD Canto II) and analyzed by FlowJo. The fluorescence intensity was converted to bound molecules/cell based on the quantitative beads standard curve (Quantum™ MESF Kits, Bangs Laboratories). KD was calculated by Graphpad Prism5.

[2] = biological target: T2, Cyno P-cadherin on W319-CHOK1.cynoPro1.FL cells (cynomolgus, UniProt A0A2K5WPN9 108-829); test: FACS on CHOK1 cells transiently expressing cyno P-cadherin
T2 construct: whole, on cells; also called cynomolgus P-cadherin; W391-CHOK1.cynoPro1.FL (transient)
Procedure: Binding of the test antibodies to P-cadherin expressed on cells was determined by flow cytometry analysis. […] 1×10⁵ cells/well (100 μL) were added to each well of a 96-well U-plate (Corning, #3799) and centrifuged at 1500 rpm (Eppendorf, #5810R) for 5 minutes before removing the supernatant. Antibodies serially diluted in 1% BSA/1×PBS (Ca+/Mg+) were added at 100 μL/well to the pelleted cells and incubated at 4° C. for 1 hour. Anon-related hIgG1 antibody was used as an isotype control. Cells were washed two times with 180 μL/well of 1% BSA/1×PBS (Ca+/Mg+) by centrifugation at 1500 rpm for 5 minutes at 4° C. Pelleted cells were resuspended in 100 μL/well Alexa647 conjugated Goat anti-human IgG Fc (Jackson, #109-605-098) 1:500 diluted in 1% BSA/1×PBS (Ca+/Mg+) for 30 minutes at 4° C. in the dark. Cells were then washed two times as described above. After the final wash, cells were resuspended in 100 μL 1% BSA/1×PBS (Ca+/Mg+) and fluorescence values were measured with a FACS Canto II cytometer (BD Biosciences). The amount of cell surface bound anti-P-cadherin antibody was assessed by measuring the mean fluorescence (MFI). The FACS raw data were analyzed by FlowJo software, wells containing no antibody or secondary antibody only were used to establish background fluorescence. […]
Binding of the test antibodies to cynomolgus P-cadherin expressed on cells was determined by flow cytometry analysis. […]

[3] = biological target: T1, Human P-cadherin on cells; test: cell-based or functional assay
[4] = biological target: T1, Human P-cadherin on cells; test: FACS on HCT-116 cells, antibody kept in human serum at 37 C, Day 0
Procedure: The antibody stability in human serum was tested by FACS. Briefly, human serum was freshly isolated by centrifuging the fresh blood twice at 4000 rpm for 10 minutes. […] As a control, antibodies serum mix was frozen immediately without 37° C. incubation. For the FACS analysis, the samples from different time points were free-thawed simultaneously at 4° C. […] The cells were washed twice with 1% BSA/1×PBS (Ca+/Mg+). Alexa647 conjugated Goat anti-human IgG Fc (Jackson, #109-605-098) 1:500 diluted in 1% BSA/1×PBS (Ca+/Mg+) were added to the cells and incubated at 4° C. for 30 minutes. Cells were washed twice in the same buffer and the mean fluorescence (MFI) of stained cells was measured using a FACS Canto II cytometer (BD Biosciences) and analyzed by FlowJo. Wells containing no antibody or secondary antibody only were used to establish background fluorescence. Four-parameter non-linear regression analysis was used to obtain EC50 values for cell binding using GraphPad Prism6 software.

[5] = biological target: T1, Human P-cadherin on cells; test: FACS on HCT-116 cells
Procedure: (§1) Binding of the test antibodies to P-cadherin expressed on cells was determined by flow cytometry analysis. […] 1×10⁵ cells/well (100 μL) were added to each well of a 96-well U-plate (Corning, #3799) and centrifuged at 1500 rpm (Eppendorf, #5810R) for 5 minutes before removing the supernatant. Antibodies serially diluted in 1% BSA/1×PBS (Ca+/Mg+) were added at 100 μL/well to the pelleted cells and incubated at 4° C. for 1 hour. Anon-related hIgG1 antibody was used as an isotype control. Cells were washed two times with 180 μL/well of 1% BSA/1×PBS (Ca+/Mg+) by centrifugation at 1500 rpm for 5 minutes at 4° C. Pelleted cells were resuspended in 100 μL/well Alexa647 conjugated Goat anti-human IgG Fc (Jackson, #109-605-098) 1:500 diluted in 1% BSA/1×PBS (Ca+/Mg+) for 30 minutes at 4° C. in the dark. Cells were then washed two times as described above. After the final wash, cells were resuspended in 100 μL 1% BSA/1×PBS (Ca+/Mg+) and fluorescence values were measured with a FACS Canto II cytometer (BD Biosciences). The amount of cell surface bound anti-P-cadherin antibody was assessed by measuring the mean fluorescence (MFI). The FACS raw data were analyzed by FlowJo software, wells containing no antibody or secondary antibody only were used to establish background fluorescence. Binding EC50 values were obtained by the four-parameter non-linear regression analysis using GraphPad Prism6 software.

[6] = biological target: T1, Human P-cadherin on cells; test: FACS on DU-145 cells
Procedure: as §1

T1 sequence (P22223 108-829): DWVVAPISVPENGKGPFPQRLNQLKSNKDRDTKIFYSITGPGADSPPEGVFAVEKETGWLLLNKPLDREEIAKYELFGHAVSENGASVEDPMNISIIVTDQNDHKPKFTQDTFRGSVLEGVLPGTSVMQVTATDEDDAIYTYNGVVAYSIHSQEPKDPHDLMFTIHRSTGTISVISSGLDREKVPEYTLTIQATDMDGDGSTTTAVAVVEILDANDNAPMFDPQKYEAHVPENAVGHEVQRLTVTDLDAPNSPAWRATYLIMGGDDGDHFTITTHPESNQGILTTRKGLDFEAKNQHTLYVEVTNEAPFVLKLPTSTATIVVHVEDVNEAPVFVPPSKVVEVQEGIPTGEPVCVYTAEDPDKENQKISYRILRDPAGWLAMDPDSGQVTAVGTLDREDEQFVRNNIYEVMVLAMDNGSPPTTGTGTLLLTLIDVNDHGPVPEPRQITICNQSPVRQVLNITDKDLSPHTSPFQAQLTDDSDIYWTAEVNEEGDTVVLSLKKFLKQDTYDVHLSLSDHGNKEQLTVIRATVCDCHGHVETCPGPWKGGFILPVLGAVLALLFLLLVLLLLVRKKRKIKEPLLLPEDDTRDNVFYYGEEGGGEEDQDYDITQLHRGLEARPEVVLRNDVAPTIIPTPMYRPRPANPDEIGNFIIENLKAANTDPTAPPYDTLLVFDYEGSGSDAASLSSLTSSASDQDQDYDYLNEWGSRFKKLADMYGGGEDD

B1: W3195-1.53.1-p1-uIgG1L (antibody)
heavy: not shown
light: SYELTQPPSVSVSPGQTAQITCSGDKLGDKFASWYQQKSGQSPVVVIYQDNKRPSGFPERFSGSNSGNTATLTISGTQAMDEADYYCQAWDSSIVVFGGGTKLTVLGQPKAAPSVTLFPPSSEELQANKATLVCLISDFYPGAVTVAWKADSSPVKAGVETTTPSKQSNNKYAASSYLSLTPEQWKSHRSYSCQVTHEGSTVEKTVAPTECS
notes: also called W3195-p1 antibody
- Kd [1]: 0.034 nM
- EC50 [2]: 0.095 nM
- internalization, Fab-ZAP on HCC-1954, IC50 [3]: 0.069 nM
- internalization, Fab-ZAP on HCC-1954, Max Inh % [3]: 81%
- EC50 [4]: 0.2 nM
- EC50 [5]: 0.21 nM
- EC50 [6]: 0.07 nM
- Max MFI [6]: 2100
